{"source": "patent US20190016825A1", "key": {"biotin-PCSK9-his [1]": {"biological_target": "biotin-PCSK9-his (UniProt Q8NBP7)", "assay": "competitive ELISA, one antibody coated, biotin-PCSK9-his plus 50-fold competitor; competitor: 21B12"}, "biotin-PCSK9-his [2]": {"biological_target": "biotin-PCSK9-his (UniProt Q8NBP7)", "assay": "competitive ELISA, one antibody coated, biotin-PCSK9-his plus 50-fold competitor; competitor: h001-4"}}, "data": [{"substance": "21B12 (U.S. Pat. No. 8,030,457B2) (antibody)", "values": [{"measurement": "IR (%)", "setting": "biotin-PCSK9-his [1]", "value": 97.8, "unit": "%"}, {"measurement": "IR (%)", "setting": "biotin-PCSK9-his [2]", "value": 3.86, "unit": "%"}]}]}
